In the supplement of paper PMC9170038:

System: MS2 coat protein
Test: apparent KD of MS2 coat protein; higher = weaker reporter binding
Details: Eterna round: R107
Outline: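 Apparent KD was obtained for each design as the median of normalised binding-curve fits over its clusters. RNA switches transcribed on-chip from Illumina sequencing clusters were titrated with SNAP-549-labelled MS2 coat protein (twofold steps, 0.7 or 1.5 nM to 3 µM) in 100 mM Tris-HCl pH 7.5, 80 mM KCl, 4 mM MgCl2, without or with constant ligand.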

[1] = input ligand: theophylline 20 uM
[2] = input ligand: theophylline 2 mM
[3] = input ligand: tryptophan 2.4 mM

Sequence	apparent KD of MS2 coat protein (input ligand: arginine 13.2 mM)	apparent KD of MS2 coat protein (input ligand: none)	apparent KD of MS2 coat protein [1]	apparent KD of MS2 coat protein [2]	apparent KD of MS2 coat protein [3]
AUAACAUGAGGAUCACCCAUGUAAGCUGAAGGAGCGCUGGAAACAGCAGGUAGGUCGCAGCUACCUACCACCUCAUGAGGUAGGU [(M1)-(M2)-(Arg1)-(Arg2)-(A)'-(M)'-(A)''_Design6]	16.4 nM	18.5 nM	24.4 nM	25.9 nM	19 nM
AUAACAUGAGGAUCACCCAUGUAUUGGUAACGAGGACCGGUACGGCCGCCACUCGAAUUUUGGUGGUAUAAUAUAUAUAUGAUUA [JR_SSTryptoA_Sub016]	17.4 nM	–	25.4 nM	18.8 nM	–
AUAAGUACGUCAGAUACCAGACAGCCAGACUUACAUGAGGAUCACCCAUGUGGAUGGACGGUCCCUUGGCAGCUGGCCGCAAAAG [Isedgeor]	172 nM	–	128 nM	–	216 nM
AUAAUGAGUGGUGGAUAGGUGAUCCUCUUACGAGGACCGGUACGGCCGCCACUCGAUAACAUGAGGAUCACCCAUGUAAUAAUAA [|T'-M'-Trp-Ms2|_Design19]	21 nM	–	22.6 nM	18.9 nM	–
AUACAUGAGGAUCACCCAUGUAUAGAUGAAGGAGCGACCAGAGGGUCAGGUAGGUCGCAUCACAUGAGGAUCACCCAUGUACUUA [DOUBLE!!! :-D #9]	27.1 nM	42.1 nM	43.7 nM	42.7 nM	41.5 nM
AUACAUGAGGAUCACCCAUGUCACACAGAAGGAGCGGCUGUAGAGCCAGGUAGGUCGCUGUACUGAAAAUACUUCAUACUCAUGU [#30 Exclusion - Arginine A]	21.7 nM	59.6 nM	43 nM	32.3 nM	26.1 nM
AUACAUGAGGAUCACCCAUGUCAUACAGAAGGAGCGUCAUAUUAGACAGGUAGGUCGCUGUAAUUUUUAUUAUUCUUUAUGUAUU [JR_Nu_ExcArginiA_Sub026]	21.9 nM	26 nM	33.5 nM	26.9 nM	26.1 nM
AUACAUGAGGAUCACCCAUGUUAUAGUGAAGGAGCGACAUUUAGGUCAGGUAGGUCGCACUAUUGAAUUAUUAUCCUUAUUUCUU [JR_ExcArginiA_Sub020]	16.1 nM	14 nM	22 nM	15.5 nM	15.7 nM
AUACCUAAUGAGUCGUGUAACUUUUCAGAUACCAGACUUUUCGUUGUCCCUUGGCAGCUGUUUUACAUGAGGAUCACCCAUGUUG [JR_ExcTheophyA_Sub008]	14.9 nM	–	18.5 nM	–	14.9 nM
AUACCUAGUGAGUCGUGUUUCUUUUCAGAUACCAGACUUUUCGUUGUCCCUUGGCAGCUGUUUUACAUGAGGAUCACCCAUGUUG [JR_ExcTheophyA_Sub007]	16.1 nM	–	18.4 nM	–	15.2 nM
AUCAUAAUAGACUCGUUAGAUUAUAUGGAACGAGGACCGGUACGGCCGCCACUCGUGAUGUACAUGAGGAUCACCCAUGUUAGCA [JR_SSTryptoA_Sub002]	13.1 nM	–	17.4 nM	17.3 nM	–
AUCAUCAGUUCGGCCGCCACUGUUUGGCACAGUUGUAUCGUACAUGAGGAUCACCCAUGUCACCACAGGACCGGGAACGCCGUCG [theeternabot_exclusion_MS2_Trp_B_1]	16.3 nM	–	21.6 nM	18.3 nM	–
AUCCUCAAGAAUGAUACCAGACCAAACAUGAGGAUCACCCAUGUAUCAGGCAAUUGUUACGUCCCUUGGCAGCAUGUAAGCCGAC [Theo B SS t2]	35.5 nM	–	70.2 nM	–	39.2 nM
AUCGCACCUGGUGAUACCAGCGUUUGCUCGUGACAUGAGGAUCACCCAUGUGGCCAGUGAUGCCCUUGGCAGCAUGGUCGGUGCA [Same State - Theophylline B (Freestyle 26)]	61.7 nM	–	376 nM	–	296 nM
AUCGUACCUGAAGAUACCAGCAUGUGAUCAUAACAUGAGGAUCACCCAUGUAAUCAGUGAUGCCCUUGGCAGCUUGAUCGGUACA [Same State - Theophylline B (Freestyle 12)]	39.6 nM	–	41.3 nM	–	30.2 nM
AUCGUACCUGAUGAUACCAGCAUGUGAUCAUAACAUGAGGAUCACCCAUGUAAUCAGUGAUGCCCUUGGCAGCAUAGUCGAUACA [Same State - Theophylline B (Freestyle 6)]	80.8 nM	–	174 nM	–	149 nM
AUCGUACCUGAUGAUACCAGCAUGUGCUCGUAACAUGAGGAUCACCCAUGUGAUCAGUAAUGCCCUUGGCAGCAUGAUCGGUACA [Same State - Theophylline B (Freestyle 17)]	58.8 nM	–	46.9 nM	–	50.8 nM
AUGCAUAGCCGAAGGAGCGCAAUAGAAUGACAUGAGGAUCACCCAUGUGUGUGAUGUGGAUUGCAGGUAGGUCGCGGAGUGGUAU [Exclusion - Arginine B (Freestyle 4)]	34.2 nM	37.7 nM	52.6 nM	48.1 nM	30.5 nM
AUGGAACAUGAGGAUCACCCAUGUGAUGAUACCAGAUUAACGCUUAUCCCUUGGCAGCAUGUCCGCCCUCAACCUGUGGCGUAUU [theeternabot_sameState_MS2_Theo_A_50]	21.5 nM	–	36 nM	–	20.3 nM
AUGGACGGCGAUCUGGGUUUACCAGAUCGGCGAGGACCGGUACGGCCGCCACUCGUGUUUAUUUAACAUGAGGAUCACCCAUGUA [SSTA #2]	62.4 nM	97.6 nM	163 nM	139 nM	21.3 nM
AUGUCGUUGAAUACAGCGGCAUGGAGUGAUACCAGAAUGAUCAAAUUCCCUUGGCAGCAUCACAUGAGGAUCACCCAUGUUCGAU [SSTheo A #16]	22.2 nM	–	33.2 nM	–	40.9 nM
AUUAAUAGUUGUGAUACCAGACGAACAUGAGGAUCACCCAUGUAACUUUUAGGUGUUGUAGUCCCUUGGCAGCACUAUUUAGUUA [JR_SSTheophyB_Sub014]	29.3 nM	–	48.4 nM	–	33.6 nM
AUUAUCAUGGUCAUAUAUAUUUCGUCAGAUACCAGACUAGAUAUAGUCCCUUGGCAGCUGUUACAUGAGGAUCACCCAUGUUAUU [JR_ExcTheophyA_Sub017]	32.2 nM	–	80.3 nM	–	96.3 nM
CAAAACCUUACAGAUACCAGCACAUGAGGAUCACCCAUGUAUUGGACACUUCGCUCAUCGUGCCCUUGGCAGCUGUGGGACGAGG [Tiatenan]	30.3 nM	–	132 nM	–	77.6 nM
CAAACAUGAGGAUCACCCAUGUAAACCGAAGGAGCGACGCAUAAGUCAGGUAGGUCGCGGAAGAUAAAAUAGAACACUGGGCACA [Same State Arginine A GF1]	18.2 nM	17.7 nM	19.2 nM	17.3 nM	19.1 nM
